Assay results as given in publication PMC4038622.

Tests used:
[1] = molecular target: VP4 spike protein, unprocessed precursor, rotavirus strain SA11 (clone SA11-C4111) (simian rotavirus strain SA11); assay: cryo-EM structure; single-particle three-dimensional reconstruction with icosahedral symmetry of vitrified purified virions (NTR-TLP and TR-TLP of strains SA11 and OSU), 200 kV; virions assembled in infected MA104 cells and purified in CsCl gradients; 11.9-15.4 Å (FSC 0.3)
[2] = molecular target: VP4 spike protein, unprocessed precursor, porcine rotavirus strain OSU (clone OSU-C5111) (porcine rotavirus strain OSU) (UniProt P11114); assay: as above

| Substance | stoichiometry N [1] | stoichiometry N [2] |
| --- | --- | --- |
| VP4 spike protein, unprocessed precursor, rotavirus strain SA11 (clone SA11-C4111) (natural protein) | 3 | – |
| VP4 spike protein, unprocessed precursor, porcine rotavirus strain OSU (clone OSU-C5111) (from UniProt P11114 1-776) (natural protein) | – | 3 |
